Results reported in IntAct's records for PubMed 27978489.

B1: T-cell immunoreceptor with Ig and ITIM domains (Homo sapiens), Q495A1 (parent)
chain: MRWCLLLIWAQGLRQAPLASGMMTGTIETTGNISAEKGGSIILQCHLSSTTAQVTQVNWEQQDQLLAICNADLGWHISPSFKDRVAPGPGLGLTLQSLTVNDTGEYFCIYHTYPDGTYTGRIFLEVLESSVAEHGARFQIPLLGAMAATLVVICTAVIVVVALTRKKKALRIHSVEGDLRRKSAGQEEWSPSAPSPPGSCVQAEAAPAGLCGEQRGEDCAELHDYFNVLSYRSLGNCSFFTETG

Variants of: B1
Settings: with nect2_human NECTIN2, Q92692
nect2_human NECTIN2, Q92692, sequence (Q92692 whole entry): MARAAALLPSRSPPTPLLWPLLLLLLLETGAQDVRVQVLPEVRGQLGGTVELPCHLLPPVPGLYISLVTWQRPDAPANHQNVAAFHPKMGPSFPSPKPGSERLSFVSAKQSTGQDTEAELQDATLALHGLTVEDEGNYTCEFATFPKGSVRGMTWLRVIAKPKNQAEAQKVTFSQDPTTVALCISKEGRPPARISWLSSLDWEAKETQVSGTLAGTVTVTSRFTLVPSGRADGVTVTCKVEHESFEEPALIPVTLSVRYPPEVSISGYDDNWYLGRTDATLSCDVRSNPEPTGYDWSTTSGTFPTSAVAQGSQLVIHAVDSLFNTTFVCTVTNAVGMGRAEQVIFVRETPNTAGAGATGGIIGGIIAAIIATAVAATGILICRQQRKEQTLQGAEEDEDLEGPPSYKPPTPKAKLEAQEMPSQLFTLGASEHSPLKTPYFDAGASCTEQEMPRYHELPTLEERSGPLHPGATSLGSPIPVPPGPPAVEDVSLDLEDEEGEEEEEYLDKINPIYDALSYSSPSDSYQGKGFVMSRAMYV

Effect of a mutation on the interaction, decreasing interaction strength:
T112A
Y113A
P114A
